US20150203577A1 (Chugai, published 2015)
Where a chain is given by its changes, count along the chain named.

T1: mouse FcγRII extracellular domain, C-terminally His-tagged (mouse, UniProt P08101 30-210)
T1 construct: the whole entry is named; also called mFcγRII; mFcgRII
T1 sequence: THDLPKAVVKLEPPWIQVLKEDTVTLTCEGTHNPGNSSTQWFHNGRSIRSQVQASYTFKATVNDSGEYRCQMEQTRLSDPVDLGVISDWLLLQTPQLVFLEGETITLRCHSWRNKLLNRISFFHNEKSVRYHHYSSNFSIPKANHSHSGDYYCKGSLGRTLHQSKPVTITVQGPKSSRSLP

T2: mouse FcγRIII extracellular domain, C-terminally His-tagged (mouse, UniProt P08508 31-215)
T2 construct: the whole entry is named; also called mFcγRIII; mFcgRIII
T2 chain: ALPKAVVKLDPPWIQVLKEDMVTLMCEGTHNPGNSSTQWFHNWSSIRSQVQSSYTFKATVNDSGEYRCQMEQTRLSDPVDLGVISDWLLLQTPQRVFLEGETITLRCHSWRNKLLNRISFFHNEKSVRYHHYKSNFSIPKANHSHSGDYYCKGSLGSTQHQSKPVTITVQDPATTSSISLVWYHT

B1: H237-MB390/MRAL-k0 (antibody, mouse IgG1, kappa)
heavy: QVQLQESGPGLVKPSETLSLTCAVSGHSISHDHAWSWVRQPPGEGLEWIGFISYSGITNYNPSLQGRVTISRDNSKNTLYLQMNSLRAEDTAVYYCARSLARTTAMDYWGEGTLVTVSSAKTTPPSVYPLAPGSAAQTNSMVTLGCLVKGYFPEPVTVTWNSGSLSSGVHTFPAVLQSDLYTLSSSVTVPSSTWPSETVTCNVAHPASSTKVDKKIVPRDCGCKPCICEPNEVEDVFIFPPKPKDVLTITLTPKVTCVVVDISKDDPEVQFSWFVDDVEVHTAQTQPREEQFNSTFRSVSELPIMHQDWLNGKEFKCRVNSAAFPAPIEKTISKTKGRPKAPQVYTIPPPKEQMAKDKVSLTCMITDFFPEDITVEWQWNGQPAENYKNTQPIMDTDGSYFVYSKLNVQKSNWEAGNTFTCSVLHEGLHNHHTEKSLSHSPGK
light: not shown
notes: Template of the MB390 variants; copies: 2 + 2
B2: H237-MB459/MRAL-k0 (antibody, mouse IgG1, kappa)
heavy: B1 heavy with P230T, N231Y, T331N
light: not shown
notes: copies: 2 + 2
B3: H237-MB460/MRAL-k0 (antibody, mouse IgG1, kappa)
heavy: B1 heavy with P230T, N231Y, T331Y
light: not shown
notes: copies: 2 + 2
B4: H237-MB449/MRAL-k0 (antibody, mouse IgG1, kappa)
heavy: B1 heavy with P230T, N231Y, N320L
light: not shown
notes: copies: 2 + 2
B5: H237-MB456/MRAL-k0 (antibody, mouse IgG1, kappa)
heavy: B1 heavy with P230T, N231Y, E329N
light: not shown
notes: copies: 2 + 2
B6: H237-MB452/MRAL-k0 (antibody, mouse IgG1, kappa)
heavy: B1 heavy with P230T, N231Y, A326Q
light: not shown
notes: copies: 2 + 2
B7: H237-MB441/MRAL-k0 (antibody, mouse IgG1, kappa)
heavy: B1 heavy with P230T, N231Y, A326K
light: not shown
notes: copies: 2 + 2
B8: H237-MB454/MRAL-k0 (antibody, mouse IgG1, kappa)
heavy: B1 heavy with P230T, N231Y, P327F
light: not shown
notes: copies: 2 + 2
B9: H237-MB397/MRAL-k0 (antibody, mouse IgG1, kappa)
heavy: B1 heavy with P230T, N231Y
light: not shown
notes: Template of the MB397 variants; copies: 2 + 2
B10: H237-MB445/MRAL-k0 (antibody, mouse IgG1, kappa)
heavy: B1 heavy with P230T, N231Y, F292T
light: not shown
notes: copies: 2 + 2
B11: H237-MB451/MRAL-k0 (antibody, mouse IgG1, kappa)
heavy: B1 heavy with P230T, N231Y, A326G
light: not shown
notes: copies: 2 + 2
B12: H237-MB439/MRAL-k0 (antibody, mouse IgG1, kappa)
heavy: B1 heavy with P230T, N231Y, S263E
light: not shown
notes: copies: 2 + 2
B13: H237-MB440/MRAL-k0 (antibody, mouse IgG1, kappa)
heavy: B1 heavy with P230T, N231Y, P267L
light: not shown
notes: copies: 2 + 2
B14: H237-MB450/MRAL-k0 (antibody, mouse IgG1, kappa)
heavy: B1 heavy with P230T, N231Y, N320M
light: not shown
notes: copies: 2 + 2
B15: H237-MB442/MRAL-k0 (antibody, mouse IgG1, kappa)
heavy: B1 heavy with P230T, N231Y, K330R
light: not shown
notes: copies: 2 + 2
B16: H237-MB446/MRAL-k0 (antibody, mouse IgG1, kappa)
heavy: B1 heavy with P230T, N231Y, S294L
light: not shown
notes: copies: 2 + 2
B17: H237-MB461/MRAL-k0 (antibody, mouse IgG1, kappa)
heavy: B1 heavy with P230T, N231Y, S333I
light: not shown
notes: copies: 2 + 2
B18: H237-MB458/MRAL-k0 (antibody, mouse IgG1, kappa)
heavy: B1 heavy with P230T, N231Y, E329V
light: not shown
notes: copies: 2 + 2
B19: H237-MB448/MRAL-k0 (antibody, mouse IgG1, kappa)
heavy: B1 heavy with P230T, N231Y, N320D
light: not shown
notes: copies: 2 + 2
B20: H237-MB444/MRAL-k0 (antibody, mouse IgG1, kappa)
heavy: B1 heavy with P230T, N231Y, F292N
light: not shown
notes: copies: 2 + 2
B21: H237-MB455/MRAL-k0 (antibody)
heavy: B1 heavy with P230T, N231Y, P327Y
light: not shown
notes: copies: 2 + 2
B22: H237-MB457/MRAL-k0 (antibody, mouse IgG1, kappa)
heavy: B1 heavy with P230T, N231Y, E329Y
light: not shown
notes: copies: 2 + 2
B23: H237-MB453/MRAL-k0 (antibody, mouse IgG1, kappa)
heavy: B1 heavy with P230T, N231Y, P327D
light: not shown
notes: copies: 2 + 2
B24: H237-MB443/MRAL-k0 (antibody, mouse IgG1, kappa)
heavy: B1 heavy with P230T, N231Y, F292E
light: not shown
notes: copies: 2 + 2
B25: H237-MB447/MRAL-k0 (antibody, mouse IgG1, kappa)
heavy: B1 heavy with P230T, N231Y, S294M
light: not shown
notes: copies: 2 + 2

How the values were obtained:
[1] = molecular target: T1, mouse FcγRII extracellular domain, …; experiment: SPR Biacore T200, KD ratio
From the text: (§1) The antibody H chain variable region used was the variable region H237 (SEQ ID NO: 1) of the H chain VH3-IgG1 of the anti-IL-6 receptor antibody Fv4-IgG1 described in WO2009/125825. The antibody L chain commonly used was the L chain MRAL-k0 (SEQ ID NO: 2) of the anti-IL-6 receptor antibody tocilizumab. […] The resulting variant groups were designated as MB397 variants and MB390 variants, respectively. These variants were expressed and purified by the method of Reference Example 1 and evaluated for their binding to mFcγRII and mFcγRIII by the method of Reference Example 2 using Biacore T200.
(§2) Each altered antibody was analyzed for its interaction with each Fcγ receptor prepared above using Biacore T100 (GE Healthcare Japan Corp.), Biacore T200 (GE Healthcare Japan Corp.), Biacore A100, or Biacore 4000. The running buffer used was HBS-EP+ (GE Healthcare Japan Corp.). The assay temperature was set to 25° C. The sensor chips used were chips prepared by immobilizing Protein L (ACTIGEN or BioVision) onto Series S Sensor Chip CM5 (GE Healthcare Japan Corp.) or Series S Sensor Chip CM4 (GE Healthcare Japan Corp.) by the amine coupling method.
(§3) In order to calculate the KD value of each altered antibody for FcγR, kinetic analysis was conducted according to the following method: first, the antibody of interest was captured onto any of these chips and allowed to interact with mFcγR diluted with a running buffer. For the obtained sensorgram, the assay results were globally fit into the 1:1 Langmuir binding model using Biacore Evaluation Software to calculate an association rate constant ka (L/mol/s) and a dissociation rate constant kd (1/s). From these values, the dissociation constant KD (mol/L) was calculated.

[2] = molecular target: T2, mouse FcγRIII extracellular domain, …; experiment: SPR Biacore T200, KD ratio
From the text: as §1, §2, §3

Row | Binder | relative mFcγRII-binding activity (MB390 = 1) [1] [fold] | relative mFcγRII-binding activity (mIgG1 = 1) [1] [fold] | relative mFcγRIII-binding activity (MB390 = 1) [2] [fold] | relative mFcγRIII-binding activity (mIgG1 = 1) [2] [fold] | relative mFcγRII-binding activity (MB397 = 1) [1] [fold] | relative mFcγRIII-binding activity (MB397 = 1) [2] [fold]
1 | B1 | 1 | 522 | 1 | 11.9 | – | –
2 | B2 | – | 285 | – | 20.5 | 0.51 | 1.06
3 | B3 | – | 332 | – | 21.2 | 0.6 | 1.1
4 | B4 | – | 154 | – | 10.7 | 0.28 | 0.56
5 | B5 | – | 67.9 | – | 4.5 | 0.12 | 0.23
6 | B6 | – | 46.9 | – | 4.4 | 0.08 | 0.23
7 | B7 | – | 39.7 | – | 4.1 | 0.07 | 0.21
8 | B8 | – | 295 | – | 20 | 0.53 | 1.04
9 | B9 | – | 555 | – | 19.3 | 1 | 1
10 | B10 | – | 220 | – | 13.2 | 0.4 | 0.68
11 | B11 | – | 60.1 | – | 9.7 | 0.11 | 0.5
12 | B12 | – | 39.5 | – | 4.5 | 0.07 | 0.23
13 | B13 | – | 120 | – | 6.9 | 0.22 | 0.36
14 | B14 | – | 377 | – | 22.7 | 0.68 | 1.18
15 | B15 | – | 884 | – | 26.9 | 1.6 | 1.39
16 | B16 | – | 1360 | – | 63.7 | 2.45 | 3.3
17 | B17 | – | 247 | – | 18.8 | 0.45 | 0.97
18 | B18 | – | 253 | – | 15.7 | 0.46 | 0.81
19 | B19 | – | 525 | – | 25.1 | 0.95 | 1.3
20 | B20 | – | 231 | – | 12.9 | 0.42 | 0.67
21 | B21 | – | 332 | – | 26.6 | 0.6 | 1.38
22 | B22 | – | 202 | – | 13.6 | 0.36 | 0.7
23 | B23 | – | 118 | – | 9.5 | 0.21 | 0.49
24 | B24 | – | 243 | – | 15.3 | 0.44 | 0.79
25 | B25 | – | 608 | – | 31.4 | 1.1 | 1.63
